{
  "source": "paper PMC5705219",
  "about": "“A map of human PRDM9 binding provides evidence for novel behaviors of PRDM9 and other zinc-finger proteins in meiosis” (eLife, 2017)",
  "proteins": {"B1": {"name": "full-length human PRDM9 (B allele), C-terminally tagged with HA or V5 (natural protein)", "chain": "not shown", "notes": "synthetic cDNA of the full-length 2,685 bp transcript with 218 synonymous base changes in the zinc-finger exon; An HA and a V5 version were made; tag cassette is linker-TwinStrep-linker-HA/V5-linker-P2A between PRDM9 and YFP; also called Human-HA; Human-V5; source: HEK293T, transfected (pLENTI CMV/TO Puro DEST, FuGENE-HD), in lysate; not shown: HA or V5, C-terminal, kept"}},
  "molecular_target": "the molecule itself",
  "assay": "co-IP; direct competition: HEK293T transfected with three constructs, Human and Chimp prey with the same epitope tag and Human or Chimp bait with the complementary tag; IP against the bait tag, western against the prey tag; both directions of HA/V5 tagging",
  "data": [
    {"protein": "B1", "values": [
      {"measurement": "fold pull-down efficiency against Chimp PRDM9 prey on the same Human bait", "value": "> 2", "unit": "fold"}
    ]}
  ]
}
